In paper PMC12670994:
“And” between values parts separate entries of the source, which are not always exact repeats. Identical values can stand only once.

Assays:
[1] = molecular target: SARS-CoV-2 spike on Omicron pseudovirus (GFP-expressing) (SARS-CoV-2 Omicron) (UniProt P0DTC2); assay: flow cytometry, bead-bound aptamer
[2] = molecular target: SARS-CoV-2 spike on Omicron pseudovirus (GFP-expressing) (SARS-CoV-2 Omicron) (UniProt P0DTC2); assay: flow cytometry, bead-bound aptamer; conditions: 5' hexynyl-iSp18-iSp18-iSp18 (PEG spacer)

Row | Sequence | Kd ([1]; 5' hexynyl-iSp18-iSp18-iSp18 (PEG spacer)) [pM] | Kd [2] | Kd ([1]; 5' hexynyl) [pM]
1 | ATCCAGAGTGACGCAGCACCGACCTTGTGCTTTGGGAGTGCTGGTCCAAGGGCGTTAATGGACACGGTGGCTTAGT [Omicron PEG36 Particle Aptamer] | 0.007 | 0.011 pM and 0.017 pM and 0.073 pM | 
2 | TTTTTATCCAGAGTGACGCAGCACCGACCTTGTGCTTTGGGAGTGCTGGTCCAAGGGCGTTAATGGACACGGTGGCTTAGT [Omicron Particle Aptamer] |  |  | 0.01
